This passage reports IL-2 secretion from SEB-stimulated human PBMC (ELISA), fold increase versus a mixture of XENP20111 and XENP20059 results from patent publication US20250115667A1.

For assay [1], the target named is Cytotoxic T-lymphocyte-associated protein 4 (CTLA4), human (human) (UniProt P16410). Nature of the assay: cell-based or functional assay.
Assay [2] concerns the target Programmed cell death protein 1 (PD1), human (human) (UniProt Q15116). In words: cell-based or functional assay.

Turning to XmAb20717 (bispecific antibody), the IL-2 secretion from SEB-stimulated human PBMC (ELISA), fold increase versus a mixture of XENP20111 and XENP20059 in assay [1] and in assay [2] was 1.6 fold throughout.
